The source of these data is patent publication US20180142016A1.

This assay addresses human ROR1 extracellular domain (ECD) protein (human) (UniProt Q01973). Nature of the assay: ForteBio Octet; pseudo association rate of Wnt5a binding to ROR1 in the presence of the negative control antibody, not a rate of the antibody itself.

human ROR1 extracellular domain (ECD) protein (human), sequence (Q01973 30-406 limits assumed): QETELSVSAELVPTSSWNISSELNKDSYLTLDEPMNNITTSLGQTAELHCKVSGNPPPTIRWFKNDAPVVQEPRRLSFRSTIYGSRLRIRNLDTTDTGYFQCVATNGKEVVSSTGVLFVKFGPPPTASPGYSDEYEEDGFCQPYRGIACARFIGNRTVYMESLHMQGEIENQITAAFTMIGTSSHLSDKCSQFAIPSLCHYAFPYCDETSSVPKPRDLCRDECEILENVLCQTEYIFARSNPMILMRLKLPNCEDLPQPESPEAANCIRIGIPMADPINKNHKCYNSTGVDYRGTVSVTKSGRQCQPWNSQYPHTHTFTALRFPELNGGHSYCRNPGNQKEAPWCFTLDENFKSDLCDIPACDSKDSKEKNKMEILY

mAb Control (antibody): the Pesudo ka turned out to be 21000 M⁻¹ s⁻¹.
